# Experimental data published in US7981997B2, “Growth factor which acts through ErbB-4 RTK” (Yeda Research And Development Co., priority 2000, dated 2011).
# B1: NRG-4: synthetic refolded mouse EGF-like domain of NRG-4 (residues 4 to 50, SEQ ID NO:2) (peptide, listed as Mus musculus)
# chain: MPTDHEQPCGPRHRSFCLNGGICYVIPTIPSPFCRCIENYTGARCEEVFLPSSSIPSESNLSAAFVVLAVLLTLTIAALCFLCRKGHLQRASSVQCEISLVETNNTRTRHSHREH
# Key:
# ErbB-4 = target: T1, ErbB-4 (Homo sapiens, UniProt Q15303); assay: Ligand displacement analysis of radiolabeled NRG-1β on ErbB-4-expressing CHO cells; assay type: binding; conditions: displacement of surface-bound radiolabeled NRG-1β
# T1 construct: expressed in transfected cells; host or cells: CHO (Chinese Hamster Ovary) cells
# Method: Displacement analyses of radiolabeled NRG-1β were performed with CHO cells expressing ErbB-4. Cell monolayers (2×10^5 cells) were incubated for 2 hours at 4° C. with a radiolabeled NRG-1 (5 ng/ml) in the presence of increasing concentrations of an unlabeled NRG-4 (closed triangles), or NRG-1β (closed squares). Each data point represents the mean and range (bars) of two determinations.
# Growth factors were labeled with Iodogen (Pierce) as described (Karunagaran et al., 1995). Chemical crosslinking to Chinese Hamster Ovary (CHO) cells engineered to express different ErbB combinations have been performed essentially as described (Tzahar et al., 1996). Briefly, radiolabeled ligands (at 100 ng/ml) were incubated for 2 hours with cell monolayers at 4 C. The chemical crosslinking agent BS^3 (1 mM) was then added and the cells were further incubated for 45 minutes at 22 C. […] Non-specific binding was determined in the presence of a 100-fold molar excess of the unlabeled ligani. Cells were then washed, lysed in a solution containing 0.1 M NaOH and 0.1% SDS, and radioactivity determined by use of a gamma counter.
# Taken together, the biological effects of NRG-4 and its complex formation with ErbB-4 implied not only specificity of recognition, but also weaker interaction relative to NRG-1. To quantify the interaction, a ligand displacement analysis on ErbB-4-expressing CHO cells was undertaken. […]
# [1] = system: D1 cells (32D expressing ErbB-1); assay: 32D cell proliferation, 24-hour dose-response MTT assay; assay type: cell-based; conditions: 24-hour dose-response, without IL-3
# Method: (§1) The indicated derivative lines of 32D cells were tested for cell proliferation using the [3-(4,5-dimethylthiazol-2-yl)-2,5-diphenyl]tetrazolium bromide (MTT) assay. […] The MT assay was performed 24 hours later. Results are presented as percent induction over the control untreated cells, and are the mean±S.D. of 4 determinations. Each experiment was repeated at least twice with similar findings.
# (§2) The establishment of a series of interleukin 3 (IL-3)-dependent 32D myeloid cells expressing all combinations of ErbB proteins has been described (Alimandi et al., 1997; Pinkas-Kramarski et al., 1996; Shelly et al., 1998). Cells were maintained in RPMI medium with 10% fetal bovine serum (FBS) and dilute IL3-containing conditioned medium. Prior to proliferation assays, cells were washed three times in RPMI/FBS and plated (5×10^5 cells/ml; 0.1 ml/well) into 96-well flat-bottomed plates with the indicated liconcentrations or with IL-3 (1:1000 dilution of conditioned medium). Cell survival was determined 24 hours later, or after the indicated time intervals, by MTT assay, as previously described (Mosman, 1983). MTT (0.05 mg/ml) was incubated with the analyzed cells for 2 hours at 37 C. Living cells can transform the tetrazolium ring into dark blue formazan crystals, that can be quantified by reading the optical density at 540-630 nm after lysis of the cells with acidic isopropanol.
# (§3) To test the prediction that the novel transcript encodes an ErbB-specific ligand, the corresponding full-length EGF-like domain (residues 4-50, FIG. 1a, SEQ ID NO:2) was synthesized, denatured and refolded to allow proper disulfide bridging. This method has been used before to synthesize functionally active derivatives of other EGF-like growth factors (Barbacci et al., 1995; Lin et. al., 1988; Shelly et al., 1998). A series of derivatives of the 32D cell line engineered to express different ErbB receptors or their combinations has been previously described (Pinkas-Kramarski et al., 1996; Shelly et al., 1998). The myeloid 32D parental cells require cytokine stimulation, such as interleukin 3 (IL3) for their growth, and were chosen because they lack endogenous ErbB expression.
# [2] = system: D12 cells (32D co-expressing ErbB-1 and ErbB-2); assay: as above; assay type: cell-based; conditions: 24-hour dose-response
# Method: as §1, §2, §3
# D13 cells = assay: as above; assay type: cell-based; conditions: 24-hour dose-response
# Method: as §1, §2, §3
# [3] = system: D2 cells (32D expressing ErbB-2); assay: as above; assay type: cell-based; conditions: 24-hour dose-response, without IL-3
# Method: as §1, §2, §3
# D23 cells = assay: as above; assay type: cell-based; conditions: 24-hour dose-response
# Method: as §1, §2, §3
# [4] = system: D24 cells (32D co-expressing ErbB-4 and ErbB-2); assay: as above; assay type: cell-based
# Method: as §1, §2, §3
# [5] = system: D3 cells (32D expressing ErbB-3); assay: as above; assay type: cell-based; conditions: 24-hour dose-response
# Method: as §1, §2, §3
# [6] = system: D4 cells (32D expressing ErbB-4); assay: as above; assay type: cell-based; conditions: 24-hour dose-response, in comparison to NRG-1β control
# Method: as §1, §2, §3
# [7] = system: D24 cells (32D co-expressing ErbB-4 and ErbB-2); assay: Long-term cell survival assay in the absence of IL-3 (MTT); assay type: cell-based; conditions: ligand 100 ng/ml, MTT daily
# Method: (§4) FIG. 3b show survival effect of NRG-4 on ErbB-expressing derivatives of 32D cells. The indicated derivatives of 32D cells were incubated for various time intervals in the absence of IL-3. […] For control, cells were incubated with medium conditioned by IL-3-producing cells (open triangles), or with no factor (open circles). The extent of cell proliferation was determined daily by using the calorimetric MTT assay. The data presented are the mean±S.D. of 4 determinations. Note that co-expression of ErbB-1 and ErbB-2 (D12 cells) enabled cell survival in the absence of IL-3. The experiment was repeated twice with similar results.
# as §2, with “Prior to proliferation assays, cells were washed three times in RPMI/FBS and plated (5×10^5 cells/ml; 0.1 ml/well) into 96-well flat-bottomed plates with the indicated liconcentrations or with IL-3 (1:1000 dilution of conditioned medium).” left out, “isopropanol. […]” for “isopropanol.”
# [8] = system: D4 cells (32D expressing ErbB-4); assay: as above; assay type: cell-based; conditions: ligand 100 ng/ml, MTT daily
# Method: as §4
# as §2, with “Prior to proliferation assays, cells were washed three times in RPMI/FBS and plated (5×10^5 cells/ml; 0.1 ml/well) into 96-well flat-bottomed plates with the indicated liconcentrations or with IL-3 (1:1000 dilution of conditioned medium).” left out, “isopropanol. […]” for “isopropanol.”
# T1 sequence (Q15303 26-1308, species assumed): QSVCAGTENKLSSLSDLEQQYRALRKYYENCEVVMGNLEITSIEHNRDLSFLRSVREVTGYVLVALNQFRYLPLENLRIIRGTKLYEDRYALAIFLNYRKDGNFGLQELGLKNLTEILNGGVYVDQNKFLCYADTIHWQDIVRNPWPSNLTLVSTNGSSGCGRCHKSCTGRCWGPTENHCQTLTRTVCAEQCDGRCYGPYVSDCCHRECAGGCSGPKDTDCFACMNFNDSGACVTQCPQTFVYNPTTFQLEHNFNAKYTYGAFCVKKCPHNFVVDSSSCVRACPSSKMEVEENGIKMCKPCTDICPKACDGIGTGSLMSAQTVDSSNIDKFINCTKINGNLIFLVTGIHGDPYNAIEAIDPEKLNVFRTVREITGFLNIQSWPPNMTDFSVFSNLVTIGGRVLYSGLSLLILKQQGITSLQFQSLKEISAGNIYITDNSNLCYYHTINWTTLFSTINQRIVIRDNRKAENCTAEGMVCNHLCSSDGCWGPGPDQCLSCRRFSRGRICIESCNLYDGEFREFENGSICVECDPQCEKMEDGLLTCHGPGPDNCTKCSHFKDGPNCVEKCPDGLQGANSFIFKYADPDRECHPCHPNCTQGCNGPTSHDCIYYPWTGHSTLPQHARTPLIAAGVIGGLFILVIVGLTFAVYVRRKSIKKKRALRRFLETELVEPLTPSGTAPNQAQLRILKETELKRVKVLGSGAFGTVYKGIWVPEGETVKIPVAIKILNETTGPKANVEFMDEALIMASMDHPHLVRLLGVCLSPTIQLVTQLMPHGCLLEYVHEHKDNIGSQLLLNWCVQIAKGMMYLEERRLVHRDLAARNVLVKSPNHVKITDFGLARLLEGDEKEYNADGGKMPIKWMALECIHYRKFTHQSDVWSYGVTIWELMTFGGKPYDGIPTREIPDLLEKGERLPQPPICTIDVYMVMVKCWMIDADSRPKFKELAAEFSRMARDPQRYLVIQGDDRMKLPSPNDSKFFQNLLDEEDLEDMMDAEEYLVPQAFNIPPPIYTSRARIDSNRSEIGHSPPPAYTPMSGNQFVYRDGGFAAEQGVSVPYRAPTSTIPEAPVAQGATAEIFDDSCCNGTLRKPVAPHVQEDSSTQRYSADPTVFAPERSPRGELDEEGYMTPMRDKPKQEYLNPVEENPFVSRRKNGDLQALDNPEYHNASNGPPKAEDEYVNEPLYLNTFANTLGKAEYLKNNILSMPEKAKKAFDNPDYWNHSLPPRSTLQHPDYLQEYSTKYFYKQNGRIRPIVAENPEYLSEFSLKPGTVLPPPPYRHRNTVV
molecule,measurement,setting,value
B1,lower binding affinity to ErbB-4 compared with unlabeled NRG-1,ErbB-4,approximately 8 fold
same,mitogenic response of D1 cells,[1],did not respond
same,mitogenic response of D12 cells,[2],D24 cells) was the only line that responded mitogenically
same,mitogenic response of D13 cells,D13 cells,D24 cells) was the only line that responded mitogenically
same,mitogenic response of D2 cells,[3],did not respond
same,mitogenic response of D23 cells,D23 cells,D24 cells) was the only line that responded mitogenically
same,mitogenic response of D24 cells,"[4]; 24-hour dose-response, MTT",responded mitogenically
same,mitogenic potency compared with NRG-1 in D24 cells,[4]; cells co-overexpressing ErbB-2 and ErbB-4,almost equipotent
same,mitogenic response of D3 cells,[5],did not respond
same,mitogenic response of D4 cells,[6],modest dose-dependent mitogenic response
same,survival of D24 cells in the absence of IL-3,[7],"more robust, and akin to the NRG-1-treated controls"
same,survival of D4 cells in the absence of IL-3,[8],stimulated the survival
